PMC4013717, “AFF4 binding to Tat-P-TEFb indirectly stimulates TAR recognition of super elongation complexes at the HIV promoter” (eLife, 2014)

Key:
[1] = system: Cyclin T1 (P-TEFb subunit);CDK9 (P-TEFb subunit);HIV-1 Tat;AFF4 2-73 (human;not given;HIV-1;not given); test: EMSA
[2] = system: Cyclin T1 (P-TEFb subunit);CDK9 (P-TEFb subunit);HIV-1 Tat;AFF4 2-98 (human;not given;HIV-1;not given); test: EMSA
[3] = system: Cyclin T1 (P-TEFb subunit);CDK9 (P-TEFb subunit);HIV-1 Tat;AFF4 32-67 (human;not given;HIV-1;not given); test: EMSA
[4] = target: Tat-P-TEFb complex (HIV-1 Tat 1–57, CDK9 1–330, cyclin T1 1–264) (HIV-1 | human, UniProt P04608 1-57; P50750 1-330; O60563 1-264, N-terminally acetylated (N-acetyl group on M1)); test: cell-based or functional assay
[5] = target: T1, human cyclin T1 1–264 (human, UniProt O60563 1-264); test: crystal structure; quaternary complex of Tat 1–57, AFF4 2–73, CDK9 1–330 and CycT1 1–264; 3.0 Å; three complexes in the a.u.; crystals from 2.4 M sodium formate, 10 mM MgCl2 at 18°C; details: both partners purified
T1 construct: human cyclin T1, residues 1-264; also called CycT1

[6] = target: T2, human CDK9 1–330 (human, UniProt P50750 1-330); test: as above; details: both partners purified
T2 construct: human CDK9, residues 1-330

[7] = target: Tat-P-TEFb complex (HIV-1 Tat 1–57, CDK9 1–330, cyclin T1 1–264) (HIV-1 | human) (UniProt P04608)

T2 sequence (P50750 1-330): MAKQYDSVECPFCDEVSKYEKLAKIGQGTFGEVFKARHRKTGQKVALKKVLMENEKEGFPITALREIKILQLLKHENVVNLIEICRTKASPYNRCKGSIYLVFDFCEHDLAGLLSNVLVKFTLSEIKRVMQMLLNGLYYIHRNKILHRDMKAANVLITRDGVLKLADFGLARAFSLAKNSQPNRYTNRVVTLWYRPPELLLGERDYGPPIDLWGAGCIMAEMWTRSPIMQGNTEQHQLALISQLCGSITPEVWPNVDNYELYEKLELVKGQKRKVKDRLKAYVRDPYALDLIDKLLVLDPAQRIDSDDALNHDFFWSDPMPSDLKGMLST
T1 sequence (O60563 1-264): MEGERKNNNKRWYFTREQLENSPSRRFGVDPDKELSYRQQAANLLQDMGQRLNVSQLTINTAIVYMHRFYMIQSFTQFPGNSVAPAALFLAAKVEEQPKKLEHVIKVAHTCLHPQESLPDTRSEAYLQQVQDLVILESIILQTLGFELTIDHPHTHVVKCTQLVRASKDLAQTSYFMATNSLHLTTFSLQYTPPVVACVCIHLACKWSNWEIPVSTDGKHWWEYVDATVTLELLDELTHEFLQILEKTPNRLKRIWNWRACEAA

Work on TAR RNA (nucleotides 18-44) yielded a K half [1] of 1.1 nM, a K half [2] of 1.1 nM and a K half [3] of 1.1 nM.

B1: AFF4 fragment 2–73 (domain or fragment, UniProt Q9UHB7 2-73, looked up)
chain: NREDRNVLRMKERERRNQEIQQGEDAFPPSSPLFAEPYKVTSKEDKLSSRIQSMLGNYDEMKDFIGDRSIPK
notes: AFF4 (SEC scaffold), residues 2-73; The His-tag is TEV-protease-cleavable; also called AFF4_(2–73); source: E. coli, purified
In the case of B1, the “EMSA with 32P-labeled TAR RNA and Tat-P-TEFb in the presence of excess AFF4 2–73: increase of the affinity for TAR” value [4] is reported as 30 fold, the binding result [5] is reported as “binds” and the binding result [6] is reported as “binds”.

B2: AFF4 fragment 32–67 (domain or fragment)
chain: SPLFAEPYKVTSKEDKLSSRIQSMLGNYDEMKDFIG
Molecule B2 has an EMSA with 32P-labeled TAR RNA and Tat-P-TEFb in the presence of excess AFF4 32–67: increase of the affinity for TAR [7] of 30 fold.

B3: AFF4 fragment 2–98 (domain or fragment)
chain: NREDRNVLRMKERERRNQEIQQGEDAFPPSSPLFAEPYKVTSKEDKLSSRIQSMLGNYDEMKDFIGDRSIPKLVAIPKPTVPPSADEKSNPNFFEQR
Work on B3 yielded an EMSA with 32P-labeled TAR RNA and Tat-P-TEFb in the presence of excess AFF4 2–98: increase of the affinity for TAR [7] of 30 fold.
